From patent US12398179 (SANFORD BURNHAM PREBYS MEDICAL DISCOVERY INSTITUTE, dated 2025)
Read-outs that look alike come from different tables or passages of the source. Values belong to the binder of their own block, whether it stands above or below them. Non-standard residues stand in square brackets, D forms with d. No end group written: not given here. *: point of attachment. Biotin = O=C1N[C@H]2[C@H](CS[C@H]2CCCCC(=O)*)N1; βAla = NCCC(=O)O

Key:
[1] = target: T1, EphA2 extracellular domain fused to the Fc portion of an antibody (EphA2 Fc); assay: competition ELISA: inhibition of ephrin-A5 AP binding to EphA2 Fc
T1 construct: extracellular domain; Immobilized in the ELISAs

[2] = target: T1, EphA2 extracellular domain fused to the …; assay: competition ELISA: inhibition of ephrin-A5 AP binding to immobilized EphA2 Fc; average ± SE (number of experiments)
[3] = target: T1, EphA2 extracellular domain fused to the …; assay: ELISA, inhibition of ephrin-A5 AP binding to immobilized EphA2 Fc; representative experiment; concentrations in nM
[4] = target: T2, endogenous EphA2 expressed in PC3 prostate cancer cells (UniProt P29317 24-976, limits assumed); assay: cell-based or functional assay
[5] = target: T2, endogenous EphA2 expressed in PC3 …; assay: cell-based or functional assay; remark: listed apart in the source
[6] = target: T2, endogenous EphA2 expressed in PC3 …; assay: cell-based or functional assay; remark: listed apart in the source
[7] = target: T2, endogenous EphA2 expressed in PC3 …; assay: cell-based or functional assay; remark: listed apart in the source
[8] = target: T3, EphA2 ligand binding domain (EphA2 LBD, residues 28-200) with N-terminal MASQGPG and C-terminal Ala-6xHis tag (UniProt P29317 28-200); assay: ITC, peptide titrated into EphA2 LBD, 23 °C; average ± SE (number of experiments)
T3 construct: range 28-200; Expressed in E. coli Origami 2 (DE3); used for ITC and crystallization
Procedure: For ITC, all peptides were dissolved in DMSO and both the EphA2 LBD and the peptides were diluted to obtain a final buffer containing 9.5 mM HEPES, pH 7.9, 95 mM NaCl, and 5% DMSO. […] Two-microliter aliquots of a peptide solution were injected into the cell containing 205 µL EphA2 LBD. 200-400 µM peptides were titrated into 20-40 µM EphA2 LBD. Experimental data were analyzed using the Origin software package (Microcal). The integrated values for the reaction heats were normalized to the amount of injected peptide after blank subtraction.

[9] = target: T2, endogenous EphA2 expressed in PC3 …; assay: cell-based or functional assay; remark: listed apart in the source
[10] = target: T2, endogenous EphA2 expressed in PC3 …; assay: cell-based or functional assay; remark: listed apart in the source
[11] = target: T2, endogenous EphA2 expressed in PC3 …; assay: cell-based or functional assay; remark: listed apart in the source
[12] = target: the molecule itself; assay: quantitative FRET in HEK293 cells, monomer-dimer fit; dimerization of the mutant without peptide; row assigned as for Kdiss
[13] = target: the molecule itself; assay: quantitative FRET in HEK293 cells, monomer-dimer fit; dimerization of the mutant in the presence of 50 µM YSA-GSGSK-bio; row assigned as for Kdiss
[14] = target: T2, endogenous EphA2 expressed in PC3 …; assay: cell-based or functional assay; remark: listed apart in the source

T1 sequence (P29317 whole entry, the tested form may be a part): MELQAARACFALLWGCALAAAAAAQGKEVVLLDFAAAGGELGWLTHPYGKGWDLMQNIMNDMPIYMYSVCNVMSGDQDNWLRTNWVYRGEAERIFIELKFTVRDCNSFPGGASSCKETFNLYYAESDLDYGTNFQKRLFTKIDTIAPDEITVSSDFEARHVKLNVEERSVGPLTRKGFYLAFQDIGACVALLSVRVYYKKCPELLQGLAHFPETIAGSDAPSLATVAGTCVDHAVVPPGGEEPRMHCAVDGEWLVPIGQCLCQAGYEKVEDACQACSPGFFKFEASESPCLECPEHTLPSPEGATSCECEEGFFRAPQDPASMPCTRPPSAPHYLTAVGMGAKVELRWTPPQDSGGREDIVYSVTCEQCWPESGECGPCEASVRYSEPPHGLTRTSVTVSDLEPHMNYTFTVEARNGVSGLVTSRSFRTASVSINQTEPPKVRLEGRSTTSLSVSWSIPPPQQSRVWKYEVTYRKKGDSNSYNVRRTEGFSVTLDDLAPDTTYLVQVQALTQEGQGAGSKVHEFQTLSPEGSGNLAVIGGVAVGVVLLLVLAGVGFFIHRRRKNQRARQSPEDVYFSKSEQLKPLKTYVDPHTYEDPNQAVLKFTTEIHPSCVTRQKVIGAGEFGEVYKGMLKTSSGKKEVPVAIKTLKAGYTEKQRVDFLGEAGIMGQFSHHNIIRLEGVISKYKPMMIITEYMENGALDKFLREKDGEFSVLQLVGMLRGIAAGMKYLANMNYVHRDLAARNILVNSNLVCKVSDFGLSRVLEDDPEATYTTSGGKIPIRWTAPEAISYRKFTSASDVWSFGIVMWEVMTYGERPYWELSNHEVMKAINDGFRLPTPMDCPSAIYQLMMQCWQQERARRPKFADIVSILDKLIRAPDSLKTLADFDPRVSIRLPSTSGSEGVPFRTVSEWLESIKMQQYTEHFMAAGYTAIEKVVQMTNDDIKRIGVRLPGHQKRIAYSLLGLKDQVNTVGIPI
T3 sequence (P29317 other isoform, or with tags, fused parts or gaps limits assumed, form in doubt): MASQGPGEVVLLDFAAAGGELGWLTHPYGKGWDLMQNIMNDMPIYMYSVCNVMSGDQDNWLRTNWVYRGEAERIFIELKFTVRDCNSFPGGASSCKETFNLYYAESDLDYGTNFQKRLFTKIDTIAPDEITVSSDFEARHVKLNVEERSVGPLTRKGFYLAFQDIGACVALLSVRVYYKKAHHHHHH

fold improvement in potency against βA-WLAam [1]: ~2 fold
IC50 [2]: 410 nM
IC50 [3]: 440 nM
Binder: [βAla]WLAYPDSVPY-NH2 (also called bA-WLA-Yam; BA-WLA-Yam) [βA-WLA-Yam]

IC50 [2]: 300 nM
B1: βA-WLA-YSK-bio (peptide)
peptide: [βAla]WLAYPDSVPYSK(Biotin)
notes: also called bA-WLA-YSK-bio; BA-WLA-YSK-bio

EC50 of EphA2 pY588 induction, immunoblot, PC3 cells, 15 min [4]: 1 µM
Binder: [βAla]WLAYPDSVPYGSGK(Biotin) [βA-WLA-YGSGK-bio]

IC50 of AKT S473 phosphorylation (pAKT), immunoblot, PC3 cells, 15 min [5]: 0.97 µM
Binder: [βAla]WLAYPDSVPYK(Biotin) [βA-WLA-YK-bio]

IC50 [3]: 14 nM
Binder: KAWLAYPDSVPYRPK (biotin on the N-terminal lysine (K-bio); C-terminal amide (am)) [K-bioA-WLA-YRPKam]

EC50 of EphA2 pY588 induction, immunoblot, PC3 cells, 15 min [6]: 37 nM
IC50 of AKT S473 phosphorylation (pAKT), immunoblot, PC3 cells, 15 min [6]: 30 nM
Binder: [βAla]WLAYPDSVPYSPK(Biotin) [βA-WLA-YSPK-bio]

EC50 of EphA2 pY588 induction, immunoblot, PC3 cells, 15 min [7]: 300 nM
IC50 of AKT S473 phosphorylation (pAKT), immunoblot, PC3 cells, 15 min [7]: 500 nM
Kd [8]: 190 nM
IC50 [2]: 55 nM
IC50 [3]: 53 nM
Binder: [βAla]WLAYPDSVPYRPK (also called BA-WLA-YRPK) [βA-WLA-YRPK]

EC50 of EphA2 pY588 induction, immunoblot, PC3 cells, 15 min [9]: 100 nM
IC50 of AKT S473 phosphorylation (pAKT), immunoblot, PC3 cells, 15 min [9]: 210 nM
Binder: [βAla]WLAYPDSVPYRPK(Biotin)-NH2 [βA-WLA-YRPKam-bio]

EC50 of EphA2 pY588 induction, immunoblot, PC3 cells, 15 min [10]: 2.2 µM
IC50 of AKT S473 phosphorylation (pAKT), immunoblot, PC3 cells, 15 min [10]: 0.93 µM
Binder: [βAla]WLAYPDSVPYGSK(Biotin) [βA-WLA-YGSK-bio]

EC50 of EphA2 pY588 induction, immunoblot, PC3 cells, 15 min [11]: 190 nM
IC50 of AKT S473 phosphorylation (pAKT), immunoblot, PC3 cells, 15 min [11]: 370 nM
Binder: [βAla]WLAYPDSVPYRPK(Ac) [βA-WLA-YRP-acK]

Kd [8]: 8000 nM
IC50 [2]: 4500 nM
IC50 [3]: 4500 nM
Binder: YSAYPDSVPMMSGSGSK [YSA-GSGSK]

IC50 [3]: 37 nM
B2: βA-WLA-YRPK-bio (peptide)
peptide: [βAla]WLAYPDSVPYRPK(Biotin)
notes: also called bA-WLA-YRPK-bio; BA-WLA-YRPK-bio

IC50 [2]: 820 nM
B3: YSA-GSGSK-bio (peptide)
peptide: YSAYPDSVPMMSGSGSK(Biotin)
notes: YSA with C-terminal GSGSK linker and biotin on the lysine side chain; also called YSA-GSGSK-biotin; YSA-GSGSK-bio peptide

B4: L223R/L254R/V255R (receptor)
chain: AQGKEVVLLDFAAAGGELGWLTHPYGKGWDLMQNIMNDMPIYMYSVCNVMSGDQDNWLRTNWVYRGEAERIFIELKFTVRDCNSFPGGASSCKETFNLYYAESDLDYGTNFQKRLFTKIDTIAPDEITVSSDFEARHVKLNVEERSVGPLTRKGFYLAFQDIGACVALLSVRVYYKKCPELLQGLAHFPETIAGSDAPSRATVAGTCVDHAVVPPGGEEPRMHCAVDGEWRRPIGQCLCQAGYEKVEDACQACSPGFFKFEASESPCLECPEHTLPSPEGATSCECEEGFFRAPQDPASMPCTRPPSAPHYLTAVGMGAKVELRWTPPQDSGGREDIVYSVTCEQCWPESGECGPCEASVRYSEPPHGLTRTSVTVSDLEPHMNYTFTVEARNGVSGLVTSRSFRTASVSINQTEPPKVRLEGRSTTSLSVSWSIPPPQQSRVWKYEVTYRKKGDSNSYNVRRTEGFSVTLDDLAPDTTYLVQVQALTQEGQGAGSKVHEFQTLSPEGSGNLAVIGGVAVGVVLLLVLAGVGFFIHRRRKNQRARQSPEDVYFSKSEQLKPLKTYVDPHTYEDPNQAVLKFTTEIHPSCVTRQKVIGAGEFGEVYKGMLKTSSGKKEVPVAIKTLKAGYTEKQRVDFLGEAGIMGQFSHHNIIRLEGVISKYKPMMIITEYMENGALDKFLREKDGEFSVLQLVGMLRGIAAGMKYLANMNYVHRDLAARNILVNSNLVCKVSDFGLSRVLEDDPEATYTTSGGKIPIRWTAPEAISYRKFTSASDVWSFGIVMWEVMTYGERPYWELSNHEVMKAINDGFRLPTPMDCPSAIYQLMMQCWQQERARRPKFADIVSILDKLIRAPDSLKTLADFDPRVSIRLPSTSGSEGVPFRTVSEWLESIKMQQYTEHFMAAGYTAIEKVVQMTNDDIKRIGVRLPGHQKRIAYSLLGLKDQVNTVGIPI
modifications: A C-terminal fluorescent protein tag (mTURQ donor or EYFP acceptor) is not carried in the letters.
notes: also called EphA2 L223R/L254R/V255R; clustering interface triple mutant; not shown: C-terminal fluorescent protein (mTURQ or EYFP) and any linker to it
ΔG of dimerization [12]: -3.8 kcal/mol
ΔG of dimerization [13]: -5 kcal/mol

EC50 of restoration of pAKT (S473) in cells treated with 0.1 µg/ml ephrin-A1 Fc, immunoblot, PC3 cells [14]: 2.4 µM
IC50 of inhibition of EphA2 pY588 induced by 0.1 µg/ml ephrin-A1 Fc, immunoblot, PC3 cells [14]: 3.2 µM
Kd [8]: 110 nM
IC50 [2]: 19 nM
IC50 [3]: 24 nM
Binder: [βAla]WLAYPDSVPYRPK-NH2 (also called BA-WLA-YRPKam) [βA-WLA-YRPKam]
